B1: human DNA polymerase iota (Polι), N-terminally Histidine- and SUMO-tagged (enzyme, UniProt Q9UNA4 1-740, looked up)
chain: MEKLGVEPEEEGGGDDDEEDAEAWAMELADVGAAASSQGVHDQVLPTPNASSRVIVHVDLDCFYAQVEMISNPELKDKPLGVQQKYLVVTCNYEARKLGVKKLMNVRDAKEKCPQLVLVNGEDLTRYREMSYKVTELLEEFSPVVERLGFDENFVDLTEMVEKRLQQLQSDELSAVTVSGHVYNNQSINLLDVLHIRLLVGSQIAAEMREAMYNQLGLTGCAGVASNKLLAKLVSGVFKPNQQTVLLPESCQHLIHSLNHIKEIPGIGYKTAKCLEALGINSVRDLQTFSPKILEKELGISVAQRIQKLSFGEDNSPVILSGPPQSFSEEDSFKKCSSEVEAKNKIEELLASLLNRVCQDGRKPHTVRLIIRRYSSEKHYGRESRQCPIPSHVIQKLGTGNYDVMTPMVDILMKLFRNMVNVKMPFHLTLLSVCFCNLKALNTAKKGLIDYYLMPSLSTTSRSGKHSFKMKDTHMEDFPKDKETNRDFLPSGRIESTRTRESPLDTTNFSKEKDINEFPLCSLPEGVDQEVFKQLPVDIQEEILSGKSREKFQGKGSVSCPLHASRGVLSFFSKKQMQDIPINPRDHLSSSKQVSSVSPCEPGTSGFNSSSSSYMSSQKDYSYYLDNRLKDERISQGPKEPQGFHFTNSNPAVSAFHSFPNLQSEQLFSRNHTTDSHKQTVATDSHEGLTENREPDSVDEKITFPSDIDPQVFYELPEAVQKELLAEWKRAGSDFHIGHK
notes: mature; The SUMO tag was removed only after the PCNA-Agarose step; also called Polt; Poli; not shown: N-terminal Histidine tag and SUMO tag from the pESUMO pro vector
B2: human DNA polymerase kappa (Polκ), N-terminally Histidine- and SUMO-tagged (enzyme, UniProt Q9UBT6 1-870, looked up)
chain: MDSTKEKCDSYKDDLLLRMGLNDNKAGMEGLDKEKINKIIMEATKGSRFYGNELKKEKQVNQRIENMMQQKAQITSQQLRKAQLQVDRFAMELEQSRNLSNTIVHIDMDAFYAAVEMRDNPELKDKPIAVGSMSMLSTSNYHARRFGVRAAMPGFIAKRLCPQLIIVPPNFDKYRAVSKEVKEILADYDPNFMAMSLDEAYLNITKHLEERQNWPEDKRRYFIKMGSSVENDNPGKEVNKLSEHERSISPLLFEESPSDVQPPGDPFQVNFEEQNNPQILQNSVVFGTSAQEVVKEIRFRIEQKTTLTASAGIAPNTMLAKVCSDKNKPNGQYQILPNRQAVMDFIKDLPIRKVSGIGKVTEKMLKALGIITCTELYQQRALLSLLFSETSWHYFLHISLGLGSTHLTRDGERKSMSVERTFSEINKAEEQYSLCQELCSELAQDLQKERLKGRTVTIKLKNVNFEVKTRASTVSSVVSTAEEIFAIAKELLKTEIDADFPHPLRLRLMGVRISSFPNEEDRKHQQRSIIGFLQAGNQALSATECTLEKTDKDKFVKPLEMSHKKSFFDKKRSERKWSHQDTFKCEAVNKQSFQTSQPFQVLKKKMNENLEISENSDDCQILTCPVCFRAQGCISLEALNKHVDECLDGPSISENFKMFSCSHVSATKVNKKENVPASSLCEKQDYEAHPKIKEISSVDCIALVDTIDNSSKAESIDALSNKHSKEECSSLPSKSFNIEHCHQNSSSTVSLENEDVGSFRQEYRQPYLCEVKTGQALVCPVCNVEQKTSDLTLFNVHVDVCLNKSFIQELRKDKFNPVNQPKESSRSTGSSSGVQKAVTRTKRPGLMTKYSTSKKIKPNNPKHTLDIFFK
notes: mature; The SUMO tag was removed only after the PCNA-Agarose step; also called Polk; not shown: N-terminal Histidine tag and SUMO tag from the pESUMO pro vector
B3: human p15, N-terminally Histidine- and SUMO-tagged (other, UniProt Q15004 1-111, looked up)
chain: MVRTKADSVPGTYRKVVAARAPRKVLGSSTSATNSTSVSSRKAENKYAGGNPVCVRPTPKWQKGIGEFFRLSPKDSEKENQIPEEAGSSGLGKAKRKACPLQPDHTNDEKE
notes: mature; The PCNA-Agarose column was the first step, so the His- and SUMO-tags were still on the protein; not shown: N-terminal Histidine tag and SUMO tag from the pESUMO pro vector
B4: human DNA polymerase eta (Polη), native after SUMO protease digestion (enzyme, UniProt Q9Y253 1-713, looked up)
chain: MATGQDRVVALVDMDCFFVQVEQRQNPHLRNKPCAVVQYKSWKGGGIIAVSYEARAFGVTRSMWADDAKKLCPDLLLAQVRESRGKANLTKYREASVEVMEIMSRFAVIERASIDEAYVDLTSAVQERLQKLQGQPISADLLPSTYIEGLPQGPTTAEETVQKEGMRKQGLFQWLDSLQIDNLTSPDLQLTVGAVIVEEMRAAIERETGFQCSAGISHNKVLAKLACGLNKPNRQTLVSHGSVPQLFSQMPIRKIRSLGGKLGASVIEILGIEYMGELTQFTESQLQSHFGEKNGSWLYAMCRGIEHDPVKPRQLPKTIGCSKNFPGKTALATREQVQWWLLQLAQELEERLTKDRNDNDRVATQLVVSIRVQGDKRLSSLRRCCALTRYDAHKMSHDAFTVIKNCNTSGIQTEWSPPLTMLFLCATKFSASAPSSSTDITSFLSSDPSSLPKVPVTSSEAKTQGSGPAVTATKKATTSLESFFQKAAERQKVKEASLSSLTAPTQAPMSNSPSKPSLPFQTSQSTGTEPFFKQKSLLLKQKQLNNSSVSSPQQNPWSNCKALPNSLPTEYPGCVPVCEGVSKLEESSKATPAEMDLAHNSQSMHASSASKSVLEVTQKATPNPSLLAAEDQVPCEKCGSLVPVWDMPEHMDYHFALELQKSFLQPHSSNPQVVSAVSHQGKRNPKSPLACTNKRPRPEGMQTLESFFKPLTH
notes: mature; also called Poln

Experiments:
[1] = molecular target: human PCNA N107C, N-terminally Histidine-tagged, coupled to SulfoLink agarose resin (PCNA-Agarose column) (human) (UniProt P12004); assay: salt-gradient elution from PCNA-Agarose column, empirical cumulative integration
Chain of human PCNA N107C, N-terminally Histidine-tagged, coupled to SulfoLink agarose resin (PCNA-Agarose column) (human) (P12004 other isoform, or with tags, fused parts or gaps N107C N107C limits assumed): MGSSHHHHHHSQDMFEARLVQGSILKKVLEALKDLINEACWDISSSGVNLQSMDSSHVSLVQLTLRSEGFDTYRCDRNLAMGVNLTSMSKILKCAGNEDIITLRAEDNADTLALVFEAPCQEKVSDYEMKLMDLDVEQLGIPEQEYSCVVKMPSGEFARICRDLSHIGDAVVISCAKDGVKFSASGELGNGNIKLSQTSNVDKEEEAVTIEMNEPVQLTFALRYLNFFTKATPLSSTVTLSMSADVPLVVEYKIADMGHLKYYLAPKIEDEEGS

[2] = molecular target: human PCNA N107C, N-terminally Histidine-tagged, coupled to SulfoLink agarose resin (PCNA-Agarose column) (human) (UniProt P12004); assay: salt-gradient elution from PCNA-Agarose column (N107C PCNA on SulfoLink resin), EMG fit of UV 280 nm peak
[3] = molecular target: T1, human PCNA N107C, N-terminally Histidine-tagged, coupled to SulfoLink agarose resin (PCNA-Agarose column) (human, UniProt P12004 1-261, Cys 107 joined by a thioether bond to the iodoacetyl group of SulfoLink agarose resin); assay: as above
T1 construct: Homo-trimeric ring; Immobilised bait on the column; also called N107C-PCNA; Proliferating Cell Nuclear Antigen
T1 sequence (P12004 other isoform, or with tags, fused parts or gaps N107C N107C limits assumed): as above

[4] = molecular target: T1, human PCNA N107C, N-terminally …; assay: salt-gradient elution from PCNA-Agarose column, empirical cumulative integration
From the text: Two different methods were used for defining and determining this salt concentration. One method relies on empirical calculations while the second method employs a specific model for the elution peak shape. For both methods, protein elution from the column was monitored by the value recorded by the UV detector at 280 nm. The UV absorption was then plotted on the y-axis versus the NaCl concentration (here denoted as 'c') on the x-axis in the gradient region of each chromatogram. Since linear gradients were used for elution, the conversion is readily feasible from the volume in ml to salt concentration in mM on the x-axis, resulting in direct rescaling of the axis.
A binding assay based on chromatography is presented, where the PCNA-Agarose column is used as an analytical tool. The protein of interest was loaded onto the PCNA-Agarose column at low salt concentration followed by extensive washing with a buffer of an equal ionic strength to remove the non-specifically bound proteins. A salt gradient was applied to the column to elute the bound protein of interest. This gradient region of elution in the chromatogram was used for the subsequent analysis. […] The resulting data points, i.e., UV units versus salt concentrations, were analyzed either by the empirical method of cumulative integration or by fitting the peak profile with an EMG model. […]

Molecule	median NaCl concentration of elution (50% cumulative elution) [1] [mM]	Elution Peak (mM NaCl, mode of EMG fit) [2] [mM]	Elution Peak (mM NaCl, mode of EMG fit) [3] [mM]	median NaCl concentration of elution (50% cumulative elution) [4] [mM]
human DNA polymerase delta (Polδ), four-subunit complex p125/p50/p68/p12 expressed in Sf9 insect cells (from UniProt P28340 1-1107; P49005 1-469; Q15054 1-466; Q9HCU8 1-107) (enzyme)	> 400	534	–	–
B1	–	–	359	–
B2	–	–	547	> 400
B3	–	–	340	–
B4	–	–	513	> 400

Reference: patent publication US12583886 (KING ABDULLAH UNIVERSITY OF SCIENCE AND TECHNOLOGY, dated 2026)
